Experimental data published in patent US20240317847A1 (Bayer, published 2024).
Substitutions are numbered along the chain they refer to. Numbers in names are those of the source.

T1: human IL-11 (Invigate, e.g., lot #C121021-19) (human, UniProt P20809 22-199)
T1 construct: Bought protein; also called hIL-11; hIL11
T1 sequence: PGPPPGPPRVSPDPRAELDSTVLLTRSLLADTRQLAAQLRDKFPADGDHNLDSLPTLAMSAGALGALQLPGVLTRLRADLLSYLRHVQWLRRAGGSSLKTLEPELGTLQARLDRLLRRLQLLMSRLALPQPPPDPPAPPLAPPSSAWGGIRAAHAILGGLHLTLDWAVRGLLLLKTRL

T2: murine IL-11 (Invigate, e.g., lot #C210819-09) (mouse, UniProt P47873 22-199)
T2 construct: Bought protein; biotinylated where captured on streptavidin plates; also called mIL-11; mIL11
T2 sequence: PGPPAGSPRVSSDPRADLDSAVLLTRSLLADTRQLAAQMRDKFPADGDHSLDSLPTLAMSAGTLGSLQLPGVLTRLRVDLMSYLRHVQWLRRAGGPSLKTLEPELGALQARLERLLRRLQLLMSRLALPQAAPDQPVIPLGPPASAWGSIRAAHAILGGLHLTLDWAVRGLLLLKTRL

T3: murine IL-11 (mouse, UniProt P47873 22-199)
T3 construct: bought from Invigate; also called mIL-11; mIL11
T3 sequence: T2 sequence

T4: human IL-11 (human, UniProt P20809 22-199)
T4 construct: bought from Invigate; also called hIL-11; hIL11
T4 sequence: T1 sequence

B1: TPP-31277 (antibody, human IgG4, V domains shown)
VH: EVQLLESGGGLVQPGGSLRLSCAASGFTFSHYDMNWLRQAPGKGLEWVGVISYDGSNKFYADFVKGRFTISRDNSKNTLYLQMNSLRAEDTAVYYCARTPGSHFDYWGQGTLVTVSS
VL: QSVLTQPPSASGTPGQRVTISCSGSSSNIGSNAVNWYQQLPGTAPKLLIYYDDLLPSGVPDRFSGSKSGTSASLAISGLRSEDEADYYCSAWDDSLNGVVFGGGTKLTVL
notes: consecutive numbering; also called VL-N31S
B2: TPP-31285 (antibody, human IgG4, V domains shown)
VH: B1 VH
VL: B1 VL with S31N, S90A
notes: consecutive numbering; also called VL-S90A
B3: TPP-31281 (antibody, human IgG4, V domains shown)
VH: B1 VH
VL: B1 VL with S31N, D52N
notes: consecutive numbering; also called VL-D52N
B4: TPP-31298 (antibody, human IgG4, V domains shown)
VH: B1 VH
VL: B1 VL with S31N, N97S
notes: consecutive numbering; also called VL-N97S
B5: TPP-31278 (antibody, human IgG4, V domains shown)
VH: B1 VH
VL: B1 VL with S31N, A33Y
notes: consecutive numbering; also called VL-A33Y
B6: TPP-31297 (antibody, human IgG4, V domains shown)
VH: B1 VH
VL: B1 VL with S31N, N97Q
notes: consecutive numbering; also called VL-N97Q
B7: TPP-31296 (antibody, human IgG4, V domains shown)
VH: B1 VH with F63S
VL: B1 VL with S31N
notes: consecutive numbering; also called VH-F63S
B8: TPP-31290 (antibody, human IgG4, V domains shown)
VH: B1 VH with H31S
VL: B1 VL with S31N
notes: consecutive numbering; also called VH-H31S
B9: TPP-31283 (antibody, human IgG4, V domains shown)
VH: B1 VH
VL: B1 VL with S31N, L54Q
notes: consecutive numbering; also called VL-L54Q
B10: TPP-31284 (antibody, human IgG4, V domains shown)
VH: B1 VH
VL: B1 VL with S31N, L55R
notes: consecutive numbering; also called VL-L55R
B11: TPP-31282 (antibody, human IgG4, V domains shown)
VH: B1 VH
VL: B1 VL with S31N, D53N
notes: consecutive numbering; also called VL-D53N
B12: TPP-31287 (antibody, human IgG4, V domains shown)
VH: B1 VH with L5V
VL: B1 VL with S31N
notes: consecutive numbering; also called VH-L5V
B13: TPP-31294 (antibody, human IgG4, V domains shown)
VH: B1 VH with G49A
VL: B1 VL with S31N
notes: consecutive numbering; also called VH-G49A
B14: TPP-31292 (antibody, human IgG4, V domains shown)
VH: B1 VH with N35H
VL: B1 VL with S31N
notes: consecutive numbering; also called VH-N35H
B15: TPP-31293 (antibody, human IgG4, V domains shown)
VH: B1 VH with L37V
VL: B1 VL with S31N
notes: consecutive numbering; also called VH-L37V
B16: TPP-31289 (antibody, human IgG4, V domains shown)
VH: B1 VH with G16R
VL: B1 VL with S31N
notes: consecutive numbering; also called VH-G16R
B17: TPP-31286 (antibody, human IgG4, V domains shown)
VH: B1 VH with E1Q
VL: B1 VL with S31N
notes: consecutive numbering; also called VH-E1Q
B18: TPP-31295 (antibody, human IgG4, V domains shown)
VH: B1 VH with F59Y
VL: B1 VL with S31N
notes: consecutive numbering; also called VH-F59Y
B19: TPP-31288 (antibody, human IgG4, V domains shown)
VH: B1 VH with L11V
VL: B1 VL with S31N
notes: consecutive numbering; also called VH-L11V
B20: TPP-26324 (antibody, V domains shown)
VH: EVQLLESGGGLVQPGGSLRLSCAASGFTFSSYGMHWVRQAPGKGLEWVSVISYDGSYKYYRDSVKGRFTISRDNSKNTLYLQMNSLRAEDTAVYYCAAGVPDYWGQGTLVTVSS
VL: QSVLTQPPSASGTPGQRVTISCTGSSSNIGAGYDVHWYQQLPGTAPKLLIYSNNERPSGVPDRFSGSKSGTSASLAISGLRSEDEADYYCAAWDDSLNGPVFGGGTKLTVL
notes: constant regions not restated
B21: TPP-26328 (antibody, V domains shown)
VH: B20 VH with R61A, G99T
VL: B20 VL
notes: constant regions not restated
B22: TPP-26330 (antibody, V domains shown)
VH: B20 VH with S31F, R61A
VL: B20 VL
notes: constant regions not restated
B23: TPP-26325 (antibody, V domains shown)
VH: B20 VH with S31W, R61A
VL: B20 VL
notes: constant regions not restated
B24: TPP-26331 (antibody, V domains shown)
VH: B20 VH with M34G, R61A
VL: B20 VL
notes: constant regions not restated
B25: TPP-26326 (antibody, V domains shown)
VH: B20 VH with S31Y, R61A
VL: B20 VL
notes: constant regions not restated
B26: TPP-26329 (antibody, V domains shown)
VH: B20 VH with Y32W, R61A
VL: B20 VL
notes: constant regions not restated
B27: TPP-18068 (antibody, mouse IgG1)
heavy: EVQLLESGGGLVQPGGSLRLSCAASGFTFSSYGMHWVRQAPGKGLEWVSVISYDGSYKYYADSVKGRFTISRDNSKNTLYLQMNSLRAEDTAVYYCAAGVPDYWGQGTLVTVSSAKTTPPSVYPLAPGSAAQTNSMVTLGCLVKGYFPEPVTVTWNSGSLSSGVHTFPAVLQSDLYTLSSSVTVPSSTWPSETVTCNVAHPASSTKVDKKIVPRDCGCKPCICTVPEVSSVFIFPPKPKDVLTITLTPKVTCVVVDISKDDPEVQFSWFVDDVEVHTAQTQPREEQFNSTFRSVSELPIMHQDWLNGKEFKCRVNSAAFPAPIEKTISKTKGRPKAPQVYTIPPPKEQMAKDKVSLTCMITDFFPEDITVEWQWNGQPAENYKNTQPIMDTDGSYFVYSKLNVQKSNWEAGNTFTCSVLHEGLHNHHTEKSLSHSPGK
light: QSVLTQPPSASGTPGQRVTISCTGSSSNIGAGYDVHWYQQLPGTAPKLLIYSNNERPSGVPDRFSGSKSGTSASLAISGLRSEDEADYYCAAWDDSLNGPVFGGGTKLTVLGQPKSSPSVTLFPPSSEELETNKATLVCTITDFYPGVVTVDWKVDGTPVTQGMETTQPSKQSNNKYMASSYLTLTARAWERHSSYSCQVTHEGHTVEKSLSRADCS
notes: mIgG1, Lambda; also called WT; parent clone

molecular target: T1, human IL-11 (Invigate, e.g., lot …); test: SPR, Biacore 8K; antibody captured on anti-human IgG Fc chip, IL-11 analyte 0-50 nM, 1:1 fit
Method: (§1) Antibody binding affinity to hIL-11 (Invigate, Germany, e.g., lot #C121021-19) and mIL-11 (Invigate, Germany, e.g., lot #C210819-09) was detected using Biacore 8K. Each antibody was captured on an anti-human IgG Fc antibody immobilized CM5 sensor chip (GE). hIL-11 and mIL-11 at different concentrations (0, 5, 15.82 and 50 nM) in 1×HBS-EP+ (pH 7.4) (GE healthcare) were injected over the sensor chip at a flow rate of 30 μL/min for an association phase of 120 s, followed by 200 s dissociation phase. The chip was then regenerated by 10 mM Glycine, pH 1.5 after each binding cycle.
(§2) The sensorgrams of blank surface and buffer channel were subtracted from the test sensorgrams. The experimental data was fitted by 1:1 model using Langmiur analysis. Molecular weight of 19.3 kDa was used to calculate the molar concentration of human and mouse IL-11.

Kd [nM] | Binder
9.4 | B1
7.6 | B2
170 | B3
9.3 | B4
2 | B5
8.7 | B6
9.4 | B7
290 | B8
48 | B9
11 | B10
13 | B11
9.3 | B12
11 | B13
11 | B14
4.8 | B15
9.6 | B16
9.1 | B17
20 | B18
11 | B19

molecular target: T2, murine IL-11 (Invigate, e.g., lot …); test: as above
Method: as §1, §2

Kd [nM] | Binder
12 | B1
18 | B2
130 | B3
13 | B4
1.2 | B5
14 | B6
12 | B7
300 | B8
41 | B9
15 | B10
19 | B11
13 | B12
17 | B13
19 | B14
12 | B15
14 | B16
12 | B17
33 | B18
15 | B19

molecular target: T3, murine IL-11; test: SPR, antibody captured, IL-11 as analyte
Method: (§3) Antibodies were captured via anti-mouse Fc IgGs (“Mouse antibody capture kit, Order No. BR100383, Cytiva) covalently amine coupled to a Series S CM5 sensor chip (Cytiva). The amine coupling was carried out according to the manufacturer's instructions using 1-ethyl-3-(3-dimethylaminopropyl) carbodiimide hydrochloride (EDC), N-hydroxysuccinimide (NHS) and ethanolamine HCl, pH 8.5 (“Amine Coupling Kit” BR-1000-50, Cytiva.). Human IL-11 (Invigate, e.g., lot #C121021-19), and murine IL-11 (Invigate, e.g., lot #C210819-09) were used as analytes. […] Based on that experiment an IL-11 concentration range was chosen to optimally determine kinetics and affinity of anti-IL-11 antibodies in multicycle kinetics mode. The sensor surface was regenerated with glycine pH 1.7 after each antigen injection. Obtained sensorgrams were double referenced (subtraction of reference flow cell signal and buffer injection) and were fitted to a 1:1 Langmuir binding model to derive kinetic data using the Biacore T200 Evaluation software or the Biacore Insight software.
(§4) 42 hits from the IL-11 and […] screening analysis were selected, expressed by transient transfection of mammalian cells and purified as described in Example 15. Antibodies were then tested for human IL-11 and murine IL-11 binding by SPR as described in Example 16.

Kd [nM] | binding result | Binder
1.2 | – | B20
1.3 | – | B21
1.7 | – | B22
– | no binding | B23
0.95 | – | B24
1.2 | – | B25
0.92 | – | B26
0.86 | – | B27

molecular target: T4, human IL-11; test: SPR, antibody captured, IL-11 as analyte
Method: as §3, §4

Kd [nM] | Binder
13 | B20
12 | B21
9.5 | B22
6.4 | B23
15 | B24
9.3 | B25
14 | B26
12 | B27
